Here are results for 35 substances from patent US20030040042A1, “Recombinant fibroblast growth factors” (published 2003).

The target in experiment [1] is FGF receptor on Balb/c 3T3 cells.
For experiment [2] the target is unchanged. Description: competition with [125I]-bFGF on Balb/c 3T3 cells, no heparin.
Experiment [3] has the same target. Description: competition with [125I]-bFGF on Balb/c 3T3 cells, 1 ug/ml heparin.
The target in experiment [4] is FGF receptor on bovine adrenal cortex capillary endothelial (ACE) cells (bovine) (UniProt P12820).

Sequence of bFGF-C78/96S (P09038 134-288 C211S/C229S limits assumed): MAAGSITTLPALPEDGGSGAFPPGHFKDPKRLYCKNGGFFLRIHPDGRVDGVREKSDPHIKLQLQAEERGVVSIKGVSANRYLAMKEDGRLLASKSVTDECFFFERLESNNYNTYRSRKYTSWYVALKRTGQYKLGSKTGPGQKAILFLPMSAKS
Sequence of KR128, 129ST (P09038 134-288 K261S/R262T limits assumed): as the sequence (P09038 134-288 C211S/C229S limits assumed) above, with S78C, S96C, K128S, R129T counted along it

In the case of K95T (from UniProt P09038-2) (ligand), in experiment [1], the 3T3 Mito., 1 ug/ml heparin (ED50 wild type / ED50 analog x 100%) (% of wild type) came out at 170 and the 3T3 Mito., no heparin (ED50 wild type / ED50 analog x 100%) (% of wild type) came out at 100.

Turning to “KR128, 129ST (from UniProt P09038-2) (ligand)”, in experiment [1], the 3T3 Mito., no heparin (ED50 wild type / ED50 analog x 100%) (% of wild type) amounted to 185. Moreover, the FGF-Rc Comp. (ED50 analog / ED50 wild type FGF) in experiment [2] was determined as 2; in experiment [3], 0.8.

As for R106T (from UniProt P09038-2) (ligand), in experiment [1], the 3T3 Mito., 1 ug/ml heparin (ED50 wild type / ED50 analog x 100%) (% of wild type) was found to be 250 and the 3T3 Mito., no heparin (ED50 wild type / ED50 analog x 100%) (% of wild type) amounted to 210.

As to “bFGF-C78/96S (from UniProt P09038-2) (ligand)”, in experiment [1], the 3T3 Mito., 1 ug/ml heparin (ED50 wild type / ED50 analog x 100%) (% of wild type) is 160 and the 3T3 Mito., no heparin (ED50 wild type / ED50 analog x 100%) (% of wild type) is 118. In addition, the FGF-Rc Comp. (ED50 analog / ED50 wild type FGF) in experiment [2] worked out at 0.2. The FGF-Rc Comp. (ED50 analog / ED50 wild type FGF) in experiment [3] amounted to 0.1.

On to “bFGF-C78S (from UniProt P09038-2) (ligand)”, for which the FGF-Rc Comp. (ED50 analog / ED50 wild type FGF) amounted to 0.3 in experiment [2] and 0.25 in experiment [3].

For the substance “bFGF-C96S (from UniProt P09038-2) (ligand)”, the FGF-Rc Comp. (ED50 analog / ED50 wild type FGF) in experiment [2] is 0.3; in experiment [3], 0.8.

With “bFGF-D28K (from UniProt P09038-2) (ligand)”, the FGF-Rc Comp. (ED50 analog / ED50 wild type FGF) came out at 1 in experiment [2] and 1.3 in experiment [3].

In experiment [2], “bFGF-D46A (from UniProt P09038-2) (ligand)” displayed an FGF-Rc Comp. (ED50 analog / ED50 wild type FGF) of 0.5.

On to “bFGF-D50A (from UniProt P09038-2) (ligand)”, for which the FGF-Rc Comp. (ED50 analog / ED50 wild type FGF) in experiment [2] and in experiment [3] was 2.5 each time.

With “bFGF-D99A (from UniProt P09038-2) (ligand)”, the 3T3 Mito., 1 ug/ml heparin (ED50 wild type / ED50 analog x 100%) (% of wild type) in experiment [1] amounted to 280. The 3T3 Mito., no heparin (ED50 wild type / ED50 analog x 100%) (% of wild type) in experiment [1] turned out to be 150. Further, the figures for the FGF-Rc Comp. (ED50 analog / ED50 wild type FGF) in experiment [2] and in experiment [3] were 0.04 and 0.03, respectively.

Take “bFGF-E100A (from UniProt P09038-2) (ligand)”: the FGF-Rc Comp. (ED50 analog / ED50 wild type FGF) was 0.8 in experiment [2] and 1 in experiment [3].

On to “bFGF-E100S (from UniProt P09038-2) (ligand)”, for which the FGF-Rc Comp. (ED50 analog / ED50 wild type FGF) in experiment [2] was found to be 1.1; in experiment [3], 0.5.

As to “bFGF-E105S (from UniProt P09038-2) (ligand)”, in experiment [1], the 3T3 Mito., 1 ug/ml heparin (ED50 wild type / ED50 analog x 100%) (% of wild type) stood at 100 and the 3T3 Mito., no heparin (ED50 wild type / ED50 analog x 100%) (% of wild type) was found to be 12.6. Moreover, the FGF-Rc Comp. (ED50 analog / ED50 wild type FGF) in experiment [2] came to 50. Also, the FGF-Rc Comp. (ED50 analog / ED50 wild type FGF) in experiment [3] is 40.

In experiment [1], “bFGF-E108A (from UniProt P09038-2) (ligand)” had a 3T3 Mito., no heparin (ED50 wild type / ED50 analog x 100%) (% of wild type) of 180. Moreover, the FGF-Rc Comp. (ED50 analog / ED50 wild type FGF) in experiment [2] and in experiment [3] was 2.5 throughout.

“bFGF-H59N (from UniProt P09038-2) (ligand)” showed a 3T3 Mito., no heparin (ED50 wild type / ED50 analog x 100%) (% of wild type) in experiment [1] of 315. The FGF-Rc Comp. (ED50 analog / ED50 wild type FGF) in experiment [2] and in experiment [3] was 0.4 each time.

Consider “bFGF-K27M (from UniProt P09038-2) (ligand)”, for which the FGF-Rc Comp. (ED50 analog / ED50 wild type FGF) in experiment [2] was 0.3; in experiment [3], 0.2.

For “bFGF-K35S (from UniProt P09038-2) (ligand)”, the results for the FGF-Rc Comp. (ED50 analog / ED50 wild type FGF) in experiment [2] and in experiment [3] were 0.1 and 0.05, respectively.

Take “bFGF-K55I (from UniProt P09038-2) (ligand)”: in experiment [1], the 3T3 Mito., 1 ug/ml heparin (ED50 wild type / ED50 analog x 100%) (% of wild type) turned out to be 8 and the 3T3 Mito., no heparin (ED50 wild type / ED50 analog x 100%) (% of wild type) was 1. This substance also showed an FGF-Rc Comp. (ED50 analog / ED50 wild type FGF) in experiment [2] of 2. Also, the FGF-Rc Comp. (ED50 analog / ED50 wild type FGF) in experiment [3] is 1.6.

Turning to “bFGF-K55M (from UniProt P09038-2) (ligand)”, the FGF-Rc Comp. (ED50 analog / ED50 wild type FGF) in experiment [2] and in experiment [3] was 0.4 in each case.

For “bFGF-K119S (from UniProt P09038-2) (ligand)”, the 3T3 Mito., 1 ug/ml heparin (ED50 wild type / ED50 analog x 100%) (% of wild type) in experiment [1] was 250. The 3T3 Mito., no heparin (ED50 wild type / ED50 analog x 100%) (% of wild type) in experiment [1] turned out to be 48. The FGF-Rc Comp. (ED50 analog / ED50 wild type FGF) in experiment [2] stood at 0.35; in experiment [3], 0.25.

Take “bFGF-K128E (from UniProt P09038-2) (ligand)”: in experiment [1], the 3T3 Mito., 1 ug/ml heparin (ED50 wild type / ED50 analog x 100%) (% of wild type) stood at 140 and the 3T3 Mito., no heparin (ED50 wild type / ED50 analog x 100%) (% of wild type) is 200.

“bFGF-K128S (from UniProt P09038-2) (ligand)” had a 3T3 Mito., no heparin (ED50 wild type / ED50 analog x 100%) (% of wild type) in experiment [1] of 210. In addition, the FGF-Rc Comp. (ED50 analog / ED50 wild type FGF) is 0.3 in experiment [2] and 0.25 in experiment [3].

On to “bFGF-N113S (from UniProt P09038-2) (ligand)”, for which the 3T3 Mito., no heparin (ED50 wild type / ED50 analog x 100%) (% of wild type) in experiment [1] came out at 160. Further, the FGF-Rc Comp. (ED50 analog / ED50 wild type FGF) in experiment [2] and in experiment [3] was 1 throughout.

As for “bFGF-R31S (from UniProt P09038-2) (ligand)”, in experiment [1], the 3T3 Mito., 1 ug/ml heparin (ED50 wild type / ED50 analog x 100%) (% of wild type) was 100 and the 3T3 Mito., no heparin (ED50 wild type / ED50 analog x 100%) (% of wild type) turned out to be 100. In addition, in experiment [2], the FGF-Rc Comp. (ED50 analog / ED50 wild type FGF) worked out at 1. The FGF-Rc Comp. (ED50 analog / ED50 wild type FGF) in experiment [3] was found to be 0.8.

For “bFGF-R48A (from UniProt P09038) (ligand)”, in experiment [4], the ACE Mito., 1 ug/ml heparin (ED50 wild type / ED50 analog x 100%) (% of wild type) turned out to be 84.2 and the ACE Mito., no heparin (ED50 wild type / ED50 analog x 100%) (% of wild type) amounted to 8.9. Besides, the FGF-Rc Comp. (ED50 analog / ED50 wild type FGF) in experiment [2] came to 0.32. The FGF-Rc Comp. (ED50 analog / ED50 wild type FGF) in experiment [3] came out at 0.3.

For the substance “bFGF-R48L (from UniProt P09038) (ligand)”, the ACE Mito., no heparin (ED50 wild type / ED50 analog x 100%) (% of wild type) in experiment [4] stood at 1.7. Besides, the FGF-Rc Comp. (ED50 analog / ED50 wild type FGF) in experiment [2] amounted to 0.16; in experiment [3], 2.

“bFGF-R53L (from UniProt P09038-2) (ligand)”: the figures for the FGF-Rc Comp. (ED50 analog / ED50 wild type FGF) in experiment [2] and in experiment [3] were 0.22 and 0.25, respectively.

Consider “bFGF-R90T (from UniProt P09038-2) (ligand)”, for which, in experiment [1], the 3T3 Mito., 1 ug/ml heparin (ED50 wild type / ED50 analog x 100%) (% of wild type) worked out at 216 and the 3T3 Mito., no heparin (ED50 wild type / ED50 analog x 100%) (% of wild type) is 77. In addition, the FGF-Rc Comp. (ED50 analog / ED50 wild type FGF) in experiment [2] was 0.6. Besides, the FGF-Rc Comp. (ED50 analog / ED50 wild type FGF) in experiment [3] was determined as 0.5.

Consider “bFGF-R106L (from UniProt P09038-2) (ligand)”, for which, in experiment [1], the 3T3 Mito., 1 ug/ml heparin (ED50 wild type / ED50 analog x 100%) (% of wild type) worked out at 200. The substance also showed a 3T3 Mito., no heparin (ED50 wild type / ED50 analog x 100%) (% of wild type) in experiment [1] of 20. Also, the FGF-Rc Comp. (ED50 analog / ED50 wild type FGF) in experiment [2] came to 0.3; in experiment [3] it was 0.13.

Regarding “bFGF-R116T (from UniProt P09038-2) (ligand)”, in experiment [1], the 3T3 Mito., 1 ug/ml heparin (ED50 wild type / ED50 analog x 100%) (% of wild type) was 300 and the 3T3 Mito., no heparin (ED50 wild type / ED50 analog x 100%) (% of wild type) is 50. In experiment [2], this substance gave an FGF-Rc Comp. (ED50 analog / ED50 wild type FGF) of 0.2.

“bFGF-R118L (from UniProt P09038) (ligand)”: the ACE Mito., no heparin (ED50 wild type / ED50 analog x 100%) (% of wild type) in experiment [4] is 1.8. Further, the FGF-Rc Comp. (ED50 analog / ED50 wild type FGF) turned out to be 0.5 in experiment [2] and 0.4 in experiment [3].

For the substance “bFGF-R129T (from UniProt P09038-2) (ligand)”, in experiment [1], the 3T3 Mito., 1 ug/ml heparin (ED50 wild type / ED50 analog x 100%) (% of wild type) came to 190 and the 3T3 Mito., no heparin (ED50 wild type / ED50 analog x 100%) (% of wild type) amounted to 87. The FGF-Rc Comp. (ED50 analog / ED50 wild type FGF) in experiment [2] came to 1.3. The FGF-Rc Comp. (ED50 analog / ED50 wild type FGF) in experiment [3] came out at 0.5.

As for “bFGF-V52K (from UniProt P09038-2) (ligand)”, the FGF-Rc Comp. (ED50 analog / ED50 wild type FGF) in experiment [2] was 0.5; in experiment [3] it was 0.4.

Regarding “bFGF-Y112A (from UniProt P09038-2) (ligand)”, in experiment [1], the 3T3 Mito., 1 ug/ml heparin (ED50 wild type / ED50 analog x 100%) (% of wild type) was 0.2 and the 3T3 Mito., no heparin (ED50 wild type / ED50 analog x 100%) (% of wild type) is 0.2. The FGF-Rc Comp. (ED50 analog / ED50 wild type FGF) in experiment [2] turned out to be 100. Besides, the FGF-Rc Comp. (ED50 analog / ED50 wild type FGF) in experiment [3] stood at 100.

Consider “human acidic FGF (from UniProt P05230) (ligand)”, for which, in experiment [1], the 3T3 Mito., 1 ug/ml heparin (ED50 wild type / ED50 analog x 100%) (% of wild type) was determined as 25 and the 3T3 Mito., no heparin (ED50 wild type / ED50 analog x 100%) (% of wild type) was 5. Besides, the FGF-Rc Comp. (ED50 analog / ED50 wild type FGF) in experiment [2] was found to be 0.5.
